The values that follow come from patent US20020160949A1 (WHITEHEAD INSTITUTE FOR BIOMEDICAL RESEARCH, published 2002).

By Kd is commonly meant the free concentration of one partner at which half of the binding sites on the other are occupied at equilibrium, for simple one-to-one binding. Read a high Kd as lower affinity.

For one experiment, the target named is T1, murine IL-7Rα (murine, UniProt P16872 21-459).
T1 construct: whole, on cells; Expressed alone on transfected 293 cells; also called murine IL-7Rα alone
T1 sequence (looked up): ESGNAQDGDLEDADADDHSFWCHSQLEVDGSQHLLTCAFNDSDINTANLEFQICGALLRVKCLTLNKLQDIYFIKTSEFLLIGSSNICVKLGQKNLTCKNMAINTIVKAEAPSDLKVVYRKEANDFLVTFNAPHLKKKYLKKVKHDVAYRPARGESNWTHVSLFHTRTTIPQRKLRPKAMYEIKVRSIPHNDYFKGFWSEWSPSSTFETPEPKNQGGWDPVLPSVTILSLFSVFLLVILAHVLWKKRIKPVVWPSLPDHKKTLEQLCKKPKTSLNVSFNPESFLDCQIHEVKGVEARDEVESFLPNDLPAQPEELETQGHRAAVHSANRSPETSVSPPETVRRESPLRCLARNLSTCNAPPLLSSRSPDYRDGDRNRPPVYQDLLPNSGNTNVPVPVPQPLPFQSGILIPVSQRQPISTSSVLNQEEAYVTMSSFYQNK
The experiment in a line: affinity labeling of transfected 293 cells with 125I-TSLP, DSS cross-linking, SDS-PAGE. As to the method:
The binding of TSLP to TSLPR polypeptide in the presence of IL-7Rα was examined in affinity labeling assays. Affinity labeling assays were performed by adding 1-5 nM of ¹²⁵I-labeled TSLP to 5×10⁶ 293 cells transfected with expression constructs for murine IL-7Rα, murine TSLPR polypeptide, murine IL-7Rα and murine TSLPR polypeptide, or human IL-7Rα and murine TSLPR polypeptide. Iodinated TSLP was prepared by adding IODO-GEN (Pierce, Rockford, Ill.) and 2 mCi ¹²⁵I to 1 μg of TSLP. A specific activity of approximately 200-300 μCi/μg was obtained by this method. Prior to affinity labeling, 293 cells were transiently transfected using the calcium phosphate method (Eppendorf-5 Prime, Boulder, Colo.). Following a 2 hour incubation with ¹²⁵I-TSLP, cells were cross-linked with 0.1 mg/ml disuccinimidyl suberate (Pierce), lysed in lysis buffer, and the lysates resolved by SDS-PAGE.

Experiment [1] has as its target T2, TSLP receptors constitutively expressed on NAG8/7 cells.
T2 construct: also called single class of receptors
Briefly: displacement binding of 125I-TSLP by unlabeled TSLP on NAG8/7 cells, Scatchard transformation. As to the method:
The binding of TSLP to 293 cells transfected with murine IL-7Rα and murine TSLPR polypeptide, or murine IL-7Rα alone, was analyzed in a displacement binding assay. Following two washes, 1×10⁶transfected 293 cells were incubated in a constant amount of ¹²⁵I-labeled TSLP (approximately 20,000 cpm) and varying amounts of unlabeled TSLP. Following a 3 hour incubation, treated cells were separated from the medium by centrifugation in olive oil and N-butylphthalate. Cell-bound radioactivity was measured using a gamma counter.
Analysis of binding data by Scatchard transformation was performed using the LIGAND computer program (Munson and Rodbard, 1980, Anal. Biochem. 107:220-39). […] Due to the very low binding activity of TSLP for cells expressing TSLPR polypeptide alone, it was not possible to determine the Kd for these cells. Displacement binding assays were also performed using NAG8/7 cells, which constitutively express TSLP receptors and proliferate in response to TSLP (Friend et al., supra; Levin et al., supra). In these displacement binding assays, 5×10⁶ NAG8/7 cells were incubated in a constant amount of ¹²⁵I-labeled TSLP (approximately 180,000 cpm) and varying amounts of unlabeled TSLP. The remainder of the assay was performed as described herein.

T2 sequence (Q8CII9 20-359): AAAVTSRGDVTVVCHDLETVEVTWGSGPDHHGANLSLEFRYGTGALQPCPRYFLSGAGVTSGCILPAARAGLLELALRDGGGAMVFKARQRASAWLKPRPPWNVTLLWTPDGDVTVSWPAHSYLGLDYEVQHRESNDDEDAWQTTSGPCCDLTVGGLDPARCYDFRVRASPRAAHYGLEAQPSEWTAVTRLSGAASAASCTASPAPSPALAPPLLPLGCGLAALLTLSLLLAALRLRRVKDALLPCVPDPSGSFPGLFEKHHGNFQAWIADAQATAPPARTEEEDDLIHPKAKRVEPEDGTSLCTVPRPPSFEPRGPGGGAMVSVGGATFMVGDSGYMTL

B1: Thymic stromal lymphopoietin (TSLP) (ligand, UniProt Q9JIE6 20-140, looked up)
chain: YNFSNCNFTSITKIYCNIIFHDLTGDLKGAKFEQIEDCESKPACLLKIEYYTLNPIPGCPSLPDKTFARRTREALNDHCPGYPETERNDGTQEMAQEVQNICLNQTSQILRLWYSFMQSPE
Consider B1, for which, in the experiment with murine IL-7Rα, the binding result is given as “no binding (tested: 1-5 nM of 125I-labeled TSLP)”. The same molecule displayed a Kd in experiment [1] of about 2.2 nM.
